Assay results as given in article PMC2834481.
pKd: −log10 of the molar value.

Target: squid Munc18-1 (squid)
Assay: ITC

Row | Substance | pKd
1 | synaptobrevin(77-96) peptide (from UniProt P63045 77-96) | 4.87
2 | synaptobrevin(49-96) (from UniProt P63045 49-96) (domain or fragment) | 4.88
